Changes are numbered by the printed parent chain. Read-outs that look alike come from different tables or passages of the source.
Legend:
[1] = target: human KLRB1 on CHO-K1 (human); test: FACS
[2] = target: T1, cynomolgus KLRB1 ECD (cynomolgus); test: ELISA
T1 chain: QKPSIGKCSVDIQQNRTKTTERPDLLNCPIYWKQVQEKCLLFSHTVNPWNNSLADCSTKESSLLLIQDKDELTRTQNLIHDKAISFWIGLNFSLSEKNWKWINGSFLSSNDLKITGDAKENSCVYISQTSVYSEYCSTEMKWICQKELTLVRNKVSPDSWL

[3] = target: T1, cynomolgus KLRB1 ECD; test: SPR
[4] = target: human KLRB1 ECD (human); test: SPR
Chain of human KLRB1 ECD (human) (chain, as listed by the source): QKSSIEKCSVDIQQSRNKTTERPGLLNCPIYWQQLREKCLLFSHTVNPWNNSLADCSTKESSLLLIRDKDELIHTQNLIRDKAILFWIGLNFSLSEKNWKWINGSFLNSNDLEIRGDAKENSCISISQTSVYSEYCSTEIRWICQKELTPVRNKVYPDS

[5] = target: human KLRB1 ECD (human); test: SPR; remark: listed apart in the source
[6] = target: human KLRB1 on CHO-K1 (human); test: competition, CLEC2D, FACS
[7] = target: human KLRB1 ECD (human); test: ELISA
[8] = target: T2, cynomolgus KLRB1 on CHO-K1 (cynomolgus); test: FACS
T2 chain: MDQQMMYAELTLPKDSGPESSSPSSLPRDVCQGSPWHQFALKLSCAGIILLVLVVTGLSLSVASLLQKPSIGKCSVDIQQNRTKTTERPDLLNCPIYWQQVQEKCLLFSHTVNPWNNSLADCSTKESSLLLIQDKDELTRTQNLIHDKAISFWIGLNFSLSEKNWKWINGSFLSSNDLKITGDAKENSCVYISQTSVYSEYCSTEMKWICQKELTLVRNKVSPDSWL

[9] = target: human KLRB1 ECD (human); test: SPR; remark: listed apart in the source
[10] = target: human KLRB1 ECD (human); test: SPR; remark: listed apart in the source
[11] = target: human KLRB1 ECD (human); test: ELISA; remark: listed apart in the source
[12] = target: human KLRB1 on CHO-K1 (human); test: FACS; remark: listed apart in the source
[13] = target: T2, cynomolgus KLRB1 on CHO-K1; test: FACS
[14] = target: human KLRB1 on CHO-K1 (human); test: competition, CLEC2D, FACS; remark: listed apart in the source
[15] = target: T1, cynomolgus KLRB1 ECD; test: ELISA
[16] = target: human KLRB1 ECD (human); test: SPR; remark: listed apart in the source
[17] = target: human KLRB1 ECD (human); test: ELISA; remark: listed apart in the source
[18] = target: T2, cynomolgus KLRB1 on CHO-K1; test: FACS
[19] = target: human KLRB1 on CHO-K1 (human); test: FACS; remark: listed apart in the source
[20] = target: T1, cynomolgus KLRB1 ECD; test: ELISA
[21] = target: human KLRB1 ECD (human); test: SPR; remark: listed apart in the source

Chain of human KLRB1 on CHO-K1 (human) (chain, as listed by the source): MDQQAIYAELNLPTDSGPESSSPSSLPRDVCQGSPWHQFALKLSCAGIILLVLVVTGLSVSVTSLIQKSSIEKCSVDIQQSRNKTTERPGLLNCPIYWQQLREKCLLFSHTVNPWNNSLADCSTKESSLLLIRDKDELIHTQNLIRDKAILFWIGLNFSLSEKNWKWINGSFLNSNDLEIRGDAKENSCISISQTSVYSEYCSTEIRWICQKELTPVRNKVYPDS

B1: 47A5H2 chimeric (antibody, V domains shown)
VH: QVQLQQPGAELVRPGASVKLSCKGSGYSFTGYWMHWVKQRPGQGLEWIGMIHPSDSETRLNQKFKDKATLTVDKSSSTTYMQLSSPTSEDSAVYYCASEGLRRGSFAYWGQGTLVTVSA
VL: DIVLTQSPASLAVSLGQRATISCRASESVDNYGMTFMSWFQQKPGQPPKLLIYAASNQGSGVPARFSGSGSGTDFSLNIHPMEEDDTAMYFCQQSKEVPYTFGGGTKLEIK
Q: B1 was tested. Which EC50 [1] did it give?
A: Its EC50 is 1.84 nM.

Q: And the EC50 [2]?
A: Its EC50 is 0.0182 nM.

Q: And the Kd [3]?
A: Its Kd is 6.61 nM.

Q: And the Kd [4]?
A: The Kd was 0.712 nM.

Q: And the Kd [5]?
A: The Kd was 0.306 nM.

Q: And the IC50 [6]?
A: The IC50 was 2.54 nM.

Q: What about the EC50 [7] of the same binder?
A: Its EC50 is 0.0221 nM.

Q: What about the EC50 [8] of the same binder?
A: The EC50 was 2.59 nM.

B2: 22F10G3 chimeric (antibody, V domains shown)
VH: DVQLQESGPGQVKPSQSLSLTCTVTGYSLTSDFAWNWIRQFPGNRLEWMGDIRYSGSTDYNPSLKGRSSITRDTSKNQFFLQLNSVTTEDTATYYCARGGYYGYDEGYPMDYWGQGTSVTVSS
VL: NIVLTQSPASLAVSLGQRATISCRASESVDVYGNSFMHWYQQKTGQPPKLLIYLAFNLKSGVPARFSGSGSRTDFTLTIDPVEADDAATYYCQQNNEDPFTFGSGTKLEIK
Q: With B2 as the binder, how does the Kd [9] read?
A: The Kd was 0.0665 nM.

Q: And the Kd [10]?
A: Its Kd is 0.0429 nM.

B3: Hu47A5H2-07 (antibody, V domains shown)
VH: QVQLVQSGAEVKKPGASVKVSCKASGYSFTGYWMHWVRQAPGQGLEWMGMIHPSDSETRLNQKFKDRVTMTVDTSTSTVYMELSSLRSEDTAVYYCASEGLRRGSFAYWGQGTLVTVSS
VL: DIVLTQSPDSLAVSLGERATINCRASESVDNYGMTFMSWFQQKPGQPPKLLIYAASNQGSGVPDRFSGSGSGTDFTLTISSLQAEDVAVYYCQQSKEVPYTFGQGTKLEIK
Q: How did the EC50 [1] turn out when B3 was run?
A: Its EC50 is 2.35 nM.

Q: What about the EC50 [2] of the same binder?
A: Its EC50 is 0.0108 nM.

Q: What about the Kd [3] of the same binder?
A: The Kd was 3.25 nM.

Q: What about the Kd [4] of the same binder?
A: The Kd was 1.04 nM.

Q: What about the IC50 [6] of the same binder?
A: Its IC50 is 2.32 nM.

Q: What about the EC50 [7] of the same binder?
A: Its EC50 is 0.0134 nM.

Q: What about the EC50 [8] of the same binder?
A: Its EC50 is 10.8 nM.

B4: Hu47A5H2-11 (antibody, V domains shown)
VH: B3 VH with T74K
VL: B3 VL
Q: What does the source list for B4?
A: EC50 [11]: 0.016 nM; EC50 [1]: 1.6 nM; EC50 [2]: 0.01 nM; Kd [3]: 1.94 nM; EC50 [12]: 3.01 nM; Kd [4]: 0.639 nM; EC50 [13]: 14.9 nM; IC50 [14]: 3.61 nM; IC50 [6]: 1.97 nM; EC50 [7]: 0.0238 nM; EC50 [15]: 0.024 nM; EC50 [8]: ~1.77 nM

B5: Hu50A8F2-01 (antibody, V domains shown)
VH: QVQLVQSGAEVKKPGASVKVSCKASGYTFIDYYINWVRQAPGQGLEWMGWIFPGSGHTKYNENFKGRVTMTRDTSTSTVYMELSSLRSEDTAVYYCARGDRSALGYFDYWGQGTTVTVSS
VL: DIQMTQSPSSLSASVGDRVTITCTASSSVSSTYLHWYQQKPGKAPKLLIYSTSNLASGVPSRFSGSGSGTDFTLTISSLQPEDFATYYCHQYHRSPLTFGQGTKLEIK
Q: B5 was tested. Which Kd [16] did it give?
A: The Kd was 1.55 nM.

Q: And the EC50 [17]?
A: Its EC50 is 0.0197 nM.

Q: Does B5 bind [18]?
A: Result: no binding

Q: And the EC50 [19]?
A: The EC50 was 5.54 nM.

B6: Hu50A8F2-06 (antibody, V domains shown)
VH: B5 VH with R67K, R72V
VL: B5 VL with F72Y
Q: What does the source list for B6?
A: Kd [16]: 0.828 nM; EC50 [17]: 0.0236 nM; binding result [18]: no binding; EC50 [19]: 5.44 nM

B7: Hu50A8F2-03 (antibody, V domains shown)
VH: B5 VH
VL: B5 VL with M4L, A44S, F72Y
Q: For B7, which Kd [16] is on record?
A: The Kd was 0.665 nM.

Q: And the EC50 [17]?
A: Its EC50 is 0.0113 nM.

Q: Does B7 bind [18]?
A: Result: no binding

Q: And the EC50 [19]?
A: Its EC50 is 5.17 nM.

B8: Hu50A8F2-04 (antibody, V domains shown)
VH: B5 VH
VL: B5 VL with M4L, A44S, F72Y, F84A
Q: Which results are given for B8?
A: Kd [16]: 0.693 nM; EC50 [11]: 0.033 nM; EC50 [17]: 0.0201 nM; EC50 [12]: 6.81 nM; binding result [20]: no binding; binding result [18]: no binding; EC50 [19]: 5.45 nM

B9: 50A8F2 chimeric (antibody, V domains shown)
VH: QIQLQQSGPELVKPGASVKISCKASGYTFIDYYINWVKQKPGQGLEWIGWIFPGSGHTKYNENFKGKATLTVDTSSSTAYMHLSSLTSEDTAVYFCARGDRSALGYFDYWGQGSTLTVSS
VL: QIVLTQSPAIMSASLGERVTMTCTASSSVSSTYLHWYQQKPGSSPKLWIYSTSNLASGVPARFSGSGSGTSYSLTFSSMEAEDAATYYCHQYHRSPLTFGAGTKLELK
Q: How did the Kd [16] turn out when B9 was run?
A: Its Kd is 0.229 nM.

Q: What about the EC50 [17] of the same binder?
A: The EC50 was 0.0252 nM.

Q: And the Kd [5]?
A: The Kd was 0.0521 nM.

Q: Does B9 bind [18]?
A: Result: no binding

Q: What about the EC50 [19] of the same binder?
A: Its EC50 is 5.87 nM.

B10: Hu22F10G3-3.4 (antibody, V domains shown)
VH: QVQLQESGPGLVKPSQTLSLTCTVSGYSLTSDFAWNWIRQHPGKGLEWMGDIRYSGSTDYNPSLKGRSTISRDTSKNQFSLKLSSVTAADTAVYYCARGGYYGYDEGYPMDYWGQGTLVTVSS
VL: DIVMTQSPDSLAVSLGERATISCRASESVDVYGNSFMHWYQQKPGQPPKLLIYLAFNLKSGVPARFSGSGSGTDFTLTISSLQAEDVATYYCQQNNEDPFTFGQGTKLEIK
Q: Which results are given for B10?
A: Kd [9]: 0.12 nM; Kd [10]: 0.129 nM

B11: Hu22F10G3-2.3-NA (antibody, V domains shown)
VH: B10 VH with S68V
VL: B10 VL with S35A, A64D, T89V
Q: B11 was tested. Which Kd [21] did it give?
A: The Kd was 0.14 nM.

B12: Hu22F10G3-2.3 (antibody, V domains shown)
VH: B10 VH with S68V
VL: B10 VL with A64D, T89V
Q: How did the Kd [9] turn out when B12 was run?
A: The Kd was 0.0966 nM.

Q: What about the Kd [10] of the same binder?
A: Its Kd is 0.103 nM.

Q: And the Kd [21]?
A: Its Kd is 0.0688 nM.

B13: Hu22F10G3-1.1 (antibody, V domains shown)
VH: B10 VH with M49I, S68V, R72V
VL: B10 VL with S22N, A64D, T89V
Q: For B13, which Kd [9] is on record?
A: Its Kd is 0.124 nM.

Q: What about the Kd [10] of the same binder?
A: The Kd was 0.134 nM.

B14: Hu22F10G3-2.3-QS (antibody, V domains shown)
VH: B10 VH with S68V
VL: B10 VL with N34Q, A64D, T89V
Q: How did the Kd [21] turn out when B14 was run?
A: The Kd was 0.653 nM.
